# Assay results: the supplement of paper PMC9170038
# System: MS2 coat protein
# Assay: apparent KD of MS2 coat protein; designed switch direction (-1 OFF switch, 1 ON switch): -1; higher = weaker reporter binding
# Procedure, shortened: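 Designed RNA switches were transcribed on Illumina chips by stalled E. coli RNA polymerase and titrated with SNAP-549-labelled MS2 coat protein from 0.7 or 1.5 nM, doubling to 3 µM. Step length ran from 0.8–1.5 h at the lowest concentration to 10–20 min at the highest. The apparent KD is the median over clusters for each design, from curve-fitted normalised cluster fluorescence.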
# [1] = Eterna round: R95, input ligand: FMN 200 uM
# [2] = Eterna round: R95, input ligand: microRNA oligo, concentration not stated
# [3] = Eterna round: R95, input ligand: none
# [4] = input ligand: microRNA oligo, concentration not stated
sequence,measurement,setting,value
"CUGAGCAGACGGAGAUCCAACAUGAGGAUCACCCAUGUCUCAAAAGCUUUUUGCUUGUCUUACUCUCCUCUGUUCUC [Atenve] (puzzle: Sensor v3, turn-off variant 1)",apparent KD of MS2 coat protein,[1],0.0139 µM
same,apparent KD of MS2 coat protein,[2],0.103 µM
same,apparent KD of MS2 coat protein,[3],0.0113 µM
UAAAAGUUAGGAUAUACAUGAGGAUCACCCAUGUCGCGGAACCGCGGCGAUUACUCCUGUAGAAGGAACAUCGU [Ribeat] (puzzle: Exclusion 3),apparent KD of MS2 coat protein,[2],0.125 µM
"UAGCCCAACUCAUCCUCAUUGAGACAUGAGGAUCACCCAUGUGAGGAUAUUGCGUCGAGAGGACACGAGAAGGCACAAUAGUUU [Eternabot solution 17] (Eterna round: R96, puzzle: Exclusion NG 3)",apparent KD of MS2 coat protein,input ligand: FMN 200 uM,0.216 µM
same,apparent KD of MS2 coat protein,[4],0.0881 µM
same,apparent KD of MS2 coat protein,input ligand: none,0.109 µM
"CUGAGCAGACGGAGAUCCAACAUGAGGAUCACCCAUGUCUCAAAAGCUUUUUGCUUAAACGUCUUAUCUCUGUUCAC [Esquitian 5] (Eterna round: R97, puzzle: Sensor, turn-off variant 1)",apparent KD of MS2 coat protein,input ligand: FMN 200 uM,0.0357 µM
same,apparent KD of MS2 coat protein,input ligand: none,0.0338 µM
"GGUAGAGUGGUAGGAUAUCCGACUGUUUCAGACGGAGAAGGACCACAGUCACUGGGUCCAAAUAUCAUGGAGACCUGAUCUACC [pwkr exNG1 F6.8] (Eterna round: R96, puzzle: Exclusion NG 1)",apparent KD of MS2 coat protein,input ligand: FMN 200 uM,0.983 µM
same,apparent KD of MS2 coat protein,[4],0.556 µM
same,apparent KD of MS2 coat protein,input ligand: none,0.634 µM
CGGUGCUGAGGAUAUACAUGAGGAUCACCCAUGUGUUCCAGCUAGGUGACUGGCAGAUGUAGAAGGCGGUACUG [JL-ex3-3.38 Brourd mod] (puzzle: Exclusion 3),apparent KD of MS2 coat protein,[1],0.0722 µM
same,apparent KD of MS2 coat protein,[2],0.0986 µM
same,apparent KD of MS2 coat protein,[3],0.102 µM
"AAGAUGCGGAUAGGAUAUGGAAAGAAAAGAAAAUUAGAAGGGUUGGUUAAAAUACAUGAGGAUCACCCAUGUGAAUCAUGAGAA [AK ExNG1-2] (Eterna round: R96, puzzle: Exclusion NG 1)",apparent KD of MS2 coat protein,input ligand: FMN 200 uM,0.132 µM
same,apparent KD of MS2 coat protein,[4],0.0898 µM
same,apparent KD of MS2 coat protein,input ligand: none,0.0999 µM
GUUAGUAUCUAGGAUAUCUAGUACAUAGUAUCUAGAGAAGGAGAUACAUGAGGAUCACCCAUGUUCUGUGAUCU [Exclusion 6 - 2:c] (puzzle: Exclusion 6),apparent KD of MS2 coat protein,[1],0.053 µM
same,apparent KD of MS2 coat protein,[2],0.205 µM
same,apparent KD of MS2 coat protein,[3],0.234 µM
"GAAUAACAAGCGAGAUCCUACAUGAGGAUCACCCAUGUGCUCGUCUUAUAAAGUACUAUCACGAAAGUGAUAGUACA [Mat - Sensor v3 - turn-off var 1 - Eli Mod - D62] (puzzle: Sensor v3, turn-off variant 1)",apparent KD of MS2 coat protein,[1],0.0162 µM
same,apparent KD of MS2 coat protein,[2],0.2 µM
same,apparent KD of MS2 coat protein,[3],0.0175 µM
"GGUCCCAGGCAGGAUAUGCAAGCCACACAUGGCGCAGAAGGGCUCACAUGAGGAUCACCCAUGUAUUUCGUUUU [Eternabot (L1) Solution 19] (Eterna round: R97, puzzle: Exclusion 6)",apparent KD of MS2 coat protein,input ligand: FMN 200 uM,0.086 µM
same,apparent KD of MS2 coat protein,input ligand: none,0.0423 µM
"AAUUCCAAGCUCAACGUUCACAUGAGGAUCACCCAUGUCAUGAGCUGUUAUAAGUUCGGAUGUUAUAUUUUGCUCGU [Eternabot (L2) Solution 12] (Eterna round: R97, puzzle: Sensor, turn-off variant 1)",apparent KD of MS2 coat protein,input ligand: FMN 200 uM,0.0146 µM
same,apparent KD of MS2 coat protein,input ligand: none,0.015 µM
"GGAGAAGUAGGAUAUACAUGAGGAUCACCCAUGUUUUAAUUAAUAUAUGGAAUAGUAAGUAGAAGGAUUAAGUU [A finsh] (Eterna round: R97, puzzle: Exclusion 3)",apparent KD of MS2 coat protein,input ligand: FMN 200 uM,0.0354 µM
same,apparent KD of MS2 coat protein,input ligand: none,0.0384 µM
"CUGAGCAGACGGAGAUCCAACAUGAGGAUCACCCAUGUCUCAAAAGCUUUUUGCUUGUCUUAUCCUCCUCUGUUCUC [Xegean] (puzzle: Sensor v3, turn-off variant 1)",apparent KD of MS2 coat protein,[1],0.0146 µM
same,apparent KD of MS2 coat protein,[2],0.248 µM
same,apparent KD of MS2 coat protein,[3],0.0127 µM
UCCUCACAUGAGGAUCACCCAUGUCAGGAUAUACAAGAAAAUAACCGGAAAGACCGGAGUAGAAGGGACAUAAG [Beleonrala] (puzzle: Exclusion 1),apparent KD of MS2 coat protein,[1],0.0316 µM
same,apparent KD of MS2 coat protein,[2],0.0161 µM
same,apparent KD of MS2 coat protein,[3],0.0161 µM
"UCGAUGUGAGGAUAUAUUUUUAUUAGUCCUUAUGUUUUAUAACUUGAGGAUCACCCAAGUAGAAGGCGCGACGU [JR_Ex2_Sub061] (Eterna round: R97, puzzle: Exclusion 2)",apparent KD of MS2 coat protein,input ligand: FMN 200 uM,0.0326 µM
same,apparent KD of MS2 coat protein,input ligand: none,0.0346 µM
"UCGAUGUGAGGAUAUAUUUUUAUUAGUCCUUAUGUUUUAUAACUUGAGGAUCACCCAAGUAGAAGGCGCUACGU [JR_Ex2_Sub062] (Eterna round: R97, puzzle: Exclusion 2)",apparent KD of MS2 coat protein,input ligand: FMN 200 uM,0.0255 µM
same,apparent KD of MS2 coat protein,input ligand: none,0.0409 µM
"GAUAUGGUGGAGGAUAUCAUUUUGGAACCAAAGUGAGAAGGCUAAACAUGAGGAUCACCCAUGUGAAGCAAGGG [Eternabot (Original) Solution 41] (Eterna round: R97, puzzle: Exclusion 6)",apparent KD of MS2 coat protein,input ligand: FMN 200 uM,0.0233 µM
same,apparent KD of MS2 coat protein,input ligand: none,0.0204 µM
"GAUUAUGCGAGCUUUAGGGACAUGAGGAUCACCCAUGUUCGUCUUAUUAAUCUGGGUACGCUAACAUACCUAAAUCU [JMF 41] (puzzle: Sensor v3, turn-off variant 1)",apparent KD of MS2 coat protein,[1],0.0285 µM
same,apparent KD of MS2 coat protein,[2],0.0407 µM
same,apparent KD of MS2 coat protein,[3],0.0267 µM
"AUAACAAGCUUUUUGUUCGUAGAACAUGAUGCUCGAGUCACAUGAGGAUCACCCAUGUCAUCCAGAUUGAUAGUUGA [JR_SV3TOV2_Sub060] (puzzle: Sensor v3, turn-off variant 2)",apparent KD of MS2 coat protein,[1],0.0395 µM
same,apparent KD of MS2 coat protein,[2],0.0512 µM
same,apparent KD of MS2 coat protein,[3],0.0403 µM
GCAUGGCGAGGAUAUACAUGAGGAUCACCCAUGUGAGAAUAAGAAGUGAGGAAGAAAAGUAGAAGGCGCUGUGG [Mat - Exclusion 3 - Mod of Salish D65] (puzzle: Exclusion 3),apparent KD of MS2 coat protein,[1],0.173 µM
same,apparent KD of MS2 coat protein,[2],0.0738 µM
same,apparent KD of MS2 coat protein,[3],0.0845 µM
"ACCUCACAUGAGGAUCACCCAUGUCAGGAUAUUCAAACAGGCGGAACUCCGCCUUCUCGAAGAAGGGACAUUAA [Ontebileza] (Eterna round: R96, puzzle: Exclusion 1)",apparent KD of MS2 coat protein,input ligand: FMN 200 uM,0.0621 µM
same,apparent KD of MS2 coat protein,[4],0.0159 µM
same,apparent KD of MS2 coat protein,input ligand: none,0.0164 µM
"UUAAAUCAUGUAGGAUAUGGAAGGCGAACCUAUCCAGAAGGACAUGAGGAUCACCCAUGUGCUGCGUUGUCCGUAGACAGCGCU [Ex NG1 #1] (Eterna round: R96, puzzle: Exclusion NG 1)",apparent KD of MS2 coat protein,input ligand: FMN 200 uM,0.114 µM
same,apparent KD of MS2 coat protein,[4],0.0295 µM
same,apparent KD of MS2 coat protein,input ligand: none,0.0362 µM
"UAUUUAAGAGGAUAUACAUGAGGAUCACCCAUGUAAAAUAAAAUAGAUAAUUUUUUAUGUAGAAGGCUUGGGUA [-12.7, -11.42 kcal, A 39%] (Eterna round: R97, puzzle: Exclusion 3)",apparent KD of MS2 coat protein,input ligand: FMN 200 uM,0.0385 µM
same,apparent KD of MS2 coat protein,input ligand: none,0.04 µM
"UUUACAAGCUAUAGAUCCCACAUGAGGAUCACCCAUGUAGCUGCCAACGGUAGCUUUUUAUGGUUUGCUCGUCUUAU [JL TOV1 3.34] (Eterna round: R97, puzzle: Sensor, turn-off variant 1)",apparent KD of MS2 coat protein,input ligand: FMN 200 uM,0.424 µM
same,apparent KD of MS2 coat protein,input ligand: none,1.21 µM
"AACGUCUAGGUAGGAUAUCCACCAACAGGUGGAAGGAUAUGUACGCAGAAGGUUCGCCAACAGGCGGAGAAGGACCUACGCGUA [pwkr exNG2 2xF7 2xFMN.30] (Eterna round: R96, puzzle: Exclusion NG 2)",apparent KD of MS2 coat protein,input ligand: FMN 200 uM,0.274 µM
same,apparent KD of MS2 coat protein,[4],0.0576 µM
same,apparent KD of MS2 coat protein,input ligand: none,0.34 µM
AACGUGGCUUAGGAUAUUGCUACGCAAAAGUAACAAGAAGGAAGCACAUGAGGAUCACCCAUGUGAUUCGUUGA [Larevean] (puzzle: Exclusion 6),apparent KD of MS2 coat protein,[1],0.0271 µM
same,apparent KD of MS2 coat protein,[2],0.0122 µM
same,apparent KD of MS2 coat protein,[3],0.0133 µM
"CUCAUGUAAGGAUAUUGGCACAUGGAACCUGCUGGUUCUGAUAAGAAGGUACAUGAGGAUCACCCAUGUCCUCG [Eternabot (L2) Solution 89] (Eterna round: R97, puzzle: Exclusion 4)",apparent KD of MS2 coat protein,input ligand: FMN 200 uM,0.0487 µM
same,apparent KD of MS2 coat protein,input ligand: none,0.0475 µM
UUUUAACAUGAGGAUCACCCAUGUGAGGAUAUGCUAUUUUUUUUUUUUUUUUUUUUUUGCAGAAGGCACAUUUU [My solution] (puzzle: Exclusion 1),apparent KD of MS2 coat protein,[1],0.0125 µM
same,apparent KD of MS2 coat protein,[2],0.526 µM
same,apparent KD of MS2 coat protein,[3],0.026 µM
"GUGAUCUAUCAUGGGAUAAACAUGAGGAUCACCCAUGUACACAAGUUUUUUGCUCGUCUUAUAAUAAGAUAGAUCAC [Antenna 3 - Jieux - Sensor, turn-off variant 1] (Eterna round: R97, puzzle: Sensor, turn-off variant 1)",apparent KD of MS2 coat protein,input ligand: FMN 200 uM,0.021 µM
same,apparent KD of MS2 coat protein,input ligand: none,0.0209 µM
"AGGGCGGGAGGAUAUCCAAUAUAUGACAUGAGGAUCACCCAUGUUUCCACUCGUACCUCCGGAGAAGGCCCGCCGA [Ex5 #25] (Eterna round: R97, puzzle: Exclusion 5)",apparent KD of MS2 coat protein,input ligand: FMN 200 uM,0.0212 µM
same,apparent KD of MS2 coat protein,input ligand: none,0.0215 µM
